Results published in the nanobody polyreactivity screen of Harvey et al. (2022).

Assay: yeast display, Sf9 membrane polyspecificity reagent, FACS + sequencing; frameworks hold sequencing errors
Summary of the method: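 In a synthetic yeast display library (Saccharomyces cerevisiae BJ5465), nanobody expression was induced with galactose for 36–48 hours. FACS gates were set low and high (top ~1%) using anti-HA fluorescence for expression and streptavidin fluorescence for binding of the Sf9 membrane reagent. Each polyreactivity label is drawn from the gate of origin.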

| Sequence | polyreactivity (PSR sort gate) |
| --- | --- |
| QVQLVESGGGLVQAGGSLRLSCAASGFTIQRYAMGWYRQAPGKERELVAAITSGGSTYYADSVKGSFTISRDNAKNTVYFQMNSLKPEDTSVYYCATRAVWSSWGRRYDSWGQGTQVTVSS | high polyreactivity |
| QVQLVETGGGLVHAGGSLRLSCAASGFIFVVNAMGWYRQAPGKERELVAAITRNGGSTYYADSVKGRFSISRDNEKNTVYLQMNSLKPEDTAVYYCATYVRRAPSTFDVDYWGLGTQVTVSS | high polyreactivity |
| QVQLVESGGGLVQAGGSLRLSCAASGRIFSSYAKGWYRQAPGKERELVAAISRGGGRTYYADSVKGRFTISRDNAKNTVYLQMNSLKPEDTAVYYCATVGRSAAYAFDYWGQGTQVTVSS | high polyreactivity |
| QVQLVESGGGLVQAGGSLRLSCAASGLIFQYYAMGWYRQAPGKERELVASISGSGSSTYYADSVKGRFTISRDNEKNTVYLQMYSLKPEDTAVYYCAAGWGRGWYDYWGQGTQVTVSS | high polyreactivity |
| QVQLVESGGGLVQAGGSLRLSCAASGFTFNWYTMGWYRQAPGKERELVAAIRGSGSRTYYADSVKGRFTISRDNAKNTVYLQMNSLKPEDTAVYYCATDYGLYSTWGRYYRYRYDYWGQGTQVTVSS | high polyreactivity |
| QDQLVESGGGLVQAGGSLRLSCAASGSTFYWYTMGWYRQAPGKESEMVATITSVGRTNYADSVKGRFTISRDNAKNTVYLQMNSLKPEDTAVYYCAASKARWARGGSKYYYWGQGTQVTVSS | high polyreactivity |
| QVQIVESRGGLVQAGGSLRLSCAASGSTIPYYAMGRYRQAPGKERELVARIRWNGDSTYYADSVKGRFTISRDIAKNTVYLQINSLKPEDTAVYYCARQGYTLYRTRNRYDYWGKGTQVTVSS | high polyreactivity |
| QVQLVESGGGLVQAGGSLRLSCAASGRIFYRNAMGWYRQAPGKERELVAAITSGGSTYYADSVKGRFTISRDNAKNTVYLQMNSLKPEDTAVYYCAAAYQRWFNRRDYWGQGTQVTVSS | high polyreactivity |
| QVQLVESGGGLVQAGGSLRLSCAASGLIFPYYALGWYRQAPGKERELVAAISWRGGNTYYADSVKGRFTISRDNAKNTVYLQMNSLKPEDTAVYYCNTVQYRNEMGYWGQGTQVTVSS | high polyreactivity |
| QVQLVESGGGLVQAGGSLRLSCAASGNIFGIYAMGWYRQAPGKERELVAAIRGRGASTYYADSVKGRFTISRDNAKNTVYLQMNSLKPEDTAVYYCAVDVPLSRYWWRRTYDYWGQGTQVTVSS | low polyreactivity |
| QVQLVESGGGLDQAGGSLRLSCAASGSIFTVNAMGWYRQAPGKERELVAAIDGSSGSTNYADSVKGRFTISRDNAKNTVYLQMNSLKPEDTAVYFCAADWSYEYGYWGQGTQVTVSS | low polyreactivity |
| QVQLVESGGGLVQAGGSLRLSCAASGSIFYGYAMGWYRQAPGKEREFVAGIDSSGGSTSYADSVKGRFTISRDNAKNTVYLQMNSLKPEDTAVYYCAKQIVSGRRVDRNDYWGQGTQVTVSS | low polyreactivity |
| QVQLVESGGGLVQAGGSLRLSCAASGSIFRSYAMGWYRQAPGKERELVARITYRGGGTYYADSVKGRVTISRDNAKNTVYLQMKSLKPEVTAVYYCAASGAFVRTRVTTADYDYWGQGTQVTVSS | high polyreactivity |
| QVQLVESGGGLVQAGGSIRISCAPSGRTFNYYAIGWNRPAPAQEREFVAAITKSCGSTYYADSVKGRFTISRDNAKYTVYLQMNSVKPEDTAVYYCATTHRYRVVYWRQGTQVTVSS | high polyreactivity |
| QVQLVESGGGLVQAGGSLRLSCAASGRIFKINAMGWYRPAPGKERELVAGISGSGSDTYYADSVKGRFTISRDNAKNTVYLQMNSLKPEDTAVYYCAATVVQYYDRDYWGQGTQVTVSS | low polyreactivity |
| QVQLVESGGGLVQAGGSLRLSCAASGFTFNKYAMGWYRQAPGKERELVAAISSSGGSTRYADSVKGRFTISRDNAKNTVYLQMNSLKPEDTADYYCAVYVTSDSGWWLYDYWGQGTQVTVSS | high polyreactivity |
| QVQLVESGGGLVQAGGSLRLSCAASGSTIEDYAMGWYRQAPGKERELVAAITSGDSTNYADSVKGRFTISRDNAKNTVYLQMISLKPEDTAVYYCFDLSNRYAVRYDYWGQGTQVTVSS | high polyreactivity |
| QVQLVESGGGLVQAGGSLRLSCAASGSIVYRYSMGWYRQAPGKERELVAGITFGAGTYYADSVKGRFTISRDNAKNTVYLQMNSLKPEDTAVYYCNAIHLPRHRDYWGQGTQVTVSS | low polyreactivity |
| QVQLQESGGGLVQAGGSLRLSCAASGYISSWYPMGSYRQAPGKEREFVATIAPGATTYYADSVKGRFTISRDYAKNTVYLQMNSLKPEDTAVYYCAAGPENNDFYSYGGQGTQVTVSS | low polyreactivity |
| QVKLVESGGGLVQAGGSLRLSCAASGSTMSVNAMGWYRQAPGKERELVAAIDFDGGDTYYADSVKGRFTISRDNAKNTVYFQMNSLKPEDTAVYYCAADIGGQYDYLADDYWGQGTQVTVSS | low polyreactivity |
| QVQLVESGGGLVQAGGSLRFSCAASGRTFTVYAMGWYRQAPGKERELVAAINYSVGSTYYADSVKGRFTISRDNAKNTVYLQMNSLKPEDTAVYYCAADLYHFSYSYSYIRYDYWGQGTQVTVSS | low polyreactivity |
| QVQLVESGGGLVQAGGSLRLSCAASGFTFQAYAMGWYRQAPGKERELVAAISKSGGSTYYADSVKGRFTISRDNAKNTVYLQMNSLKPEDTAVYYCAARSWERYRAFIYWGQGTQVTVSS | high polyreactivity |

| Sequence | polyreactivity (PSR sort gate) |
| --- | --- |
| QVQLVESGGGLVQAGGSLRLSCAASGRIFVVNAMGWYRQAPGKERELVAAITRRGGSTYADSVKGRFTISRDNAKNTVYLQMNSLKPEDTAVYYCNAESYYGIFRYKYDYWGQGTQVTVSS | high polyreactivity |
| QVQLVESGGGLVQAGGSLRISCAASGSTIAGYTMGLYRQAPGKEMELVAAISRRGSRTYYADSVKGRFTISRDNAKNTVYLQMNSLKPEDTAVYYCNARNRVYYTLSGYGYWGQGTQVTVSS | high polyreactivity |
| QVQLVESGGGLVQAGGSLRLSCAASGRTFWIYAMGWYRQAPGKEREFVAAISSSGGGTYYADSVKGRFTISRDNAKNTVYLQMNSLKPEDTAVYYCAADDGYSSNEFDYWGQGTQVTVSS | low polyreactivity |
| QVQLVESGGGLVQAGGSLRLSSAASGITFVWNAMGWYRQAPGKERELVATISRGGVRTYYADSVKGRFTISRDNAKNTVYLQMNSLKQEDTAVYYCAADGSYVHWEYGYWGQGTQVTVSS | low polyreactivity |
| QVQLVESGGGLVQAGGSLRLSCAASGSIFIQYAMGWYRQAPGKERELVAAITSGDDTYYADSVKGRFTISRDNAKNTVYLQMNSLKPEDTAVYYCAKRAHFSSARHVYYIYDYWGQGTQVTVSS | low polyreactivity |
| QVQLVESGGGLVQAGGSLRLSCAASGLTFIYNAMGWYRQAPGKERELVAAISGNGGDTYYADSVKGRFTISRDNAKNTVYLQMNSLKPEDTAVYYCAADYAYTPITWDEYWGQGTQVTVSS | low polyreactivity |
| QVQLVESGGGLVQAGGSLRLSCAASGGTFAPNAMGWYRQAPGKEREFVAAITISGGSTYYADSVKGRFTISRDNAKNTVYLQMNSLKPEDTAVYYCAADYYAWDTYQWYDYWGQGTQVTVSS | high polyreactivity |
| QVQLVESGGCLVQAGGRLRLSCAASGSTFRSYTMVWYRQAPGKERELVADINGTGGSTYYADSVKGRFTISRDNAKNTVYLHMNSLKPEDTAVYYCAADGYFRTVTSGWALRMGYWGQGTQVTVSS | high polyreactivity |
| QVQLVESGGGLVQAGGSLRLSCAASGITFRLYAMGWYRQAPGKERELVAAITGSGGRTYYADSVKGRFTISRDNAKNTVYLQMNSLNPEDTAVFYCNVYPPYAMDYWGQGTQVTVSS | high polyreactivity |
| QVQLVESGGGLVQAGGSLRLSCAASGSIFYYYAMGWYRQAPGKERELVAAITYDAGSTYYADSVKGRFTISRDNAKNTVYLQMNSLKPEDTAVYYCATDGIYHWGVYTPYDYWGQGTQVTVSS | low polyreactivity |
| QVQLVESGGGLVQAGGSLRLSCAASGSTFAYNAMGCYRQAPGKERELVAAISFTGDSTYYADSVKGRFTISRDNAKYTVYLQMNSLKPEDNRSSPVLSYDYWGQGTQVTVSS | low polyreactivity |
| QVQLVESGGGLVQAGGSLRLSGAASGLIFSRYAMGWYRQAPGKVRELVAAITSGTSTYDADSVKGRFTISRDNAKNTVYKQMNSLKPEDTAGYYCAARWWTYNARDYPDYYWGQGTQVTVSS | high polyreactivity |
| QVQLVESGGGLVQAGGSLRLSCAASGSIFPYYAMGWYRQSPGKERELVASSNQSDGTTYYADSVKGRFTISRDNAKNTVYLQMNSLKPEDTAVYYCAADTTLQAFIRYRPIGSYDSWGQGTQVTVSS | low polyreactivity |
| QVQLVESGGGLVQAGGSLRLSCAASGRTFNSYAMGWYRQAPGKERELVAAISWNTGSTYYADSVKGRFTISRDNAKNTVYLQMNSLKPEDTAVYYCAAEGELYTAFGTLSFDYWGHGTQVTVSS | high polyreactivity |
| QVQLVESGGGLVQAGGSLRLSCAASGFILGSNAMGWYRQAPGKERELVAAISRSGGSTYYADSVKGRFTISRDNAKNTVYLQMNSLKPEDTAVYYCNRVASVRARDYDYWGQGTQVTVSS | high polyreactivity |
| QVQLVESGGGLVQAGGSLRLSCAASGRIFGGNAMGWYRKAPGTEREVVAAISWIGGTTYYADSVKGRFTISRDNAKNTVYLQMISLKPEDTAVYYCAAYRYRPHDHRYYRYDYWGQGTQVTVSS | high polyreactivity |
| QVQLVESGGGLVQAAGSLRLSCAASGRTFHWYVMGWYRQAPGKESELDAAITRRGGSTYYADSVKGRFTISRDNAKNTVYLQLNSLKPEDTAVYYCAAVGNRRYYFGYDYWGQGTQVTVSS | high polyreactivity |
| QVHLVESGGGLVQAGGTLRLRCAASGSIFCCNAMGWYRQAPGKERELVAAISTSGGTTYYADSVKGRFTISRDNAKNTVFLQMHSLKPEDTAVYYCAADVYSSRYLYDYWGHGTQVTVSS | low polyreactivity |
| QVQLVESGGGLVQAGGSLRLSCAASGGTFGYNAMGWYRQAPGKERELVAAISYSGTSTYYADSVKGRFTISRDNAKNTVYLQMNSLKPEVTAVYYCNAGRYIKMGDWGQGSQVTVSS | high polyreactivity |
| QVQLVESGGGLVQAGGSLRLSCAASGRIFNDYAMGWSRQAPGKERELVAVIRRSGVSTYYADSVKGRFTISRDNAKNTVYLQMNSLKPEDTAVYYCAAYGYWGQGTQVTVSS | low polyreactivity |
| QVQLVESGGGLVQAGGSLRLSCAASGSTFDPYAMGWSRQAPGKEREMVAAISTSVGGTYYADSVKGRFTISRDYAKNTVNLQMNSLKPEDTAVYYCAVDYSDVQAYTSNEEDYWGQGTQVTVSS | low polyreactivity |
